Test: soluble on expression in E. coli; label from the status in PepcDB or PDB records

Sequence | soluble on expression in E. coli
MGSDKIHHHHHHMSKVFSPFQFDNSFVRSMEGFFEPWQGARVPAPAMVCFNQQLADELGMDADAMEDSRLAAFFCGMLTAEGSEPVAMAYAGHQFGGFSPRLGDGRALLLGEVKDIHGRRRDLHLKGSGRTNFSRGGDGKAVLGPVLREYLMGEAMHALGIPTTRALAAVTTGEDIYRDGIKPGAVLARVASSHIRVGTFEYAAARGDHEGLRELVNYSLKRHYPELEDEQTPALALLNSVSRAQAKLVAKWMGVGFIHGVMNTDNVTISGETIDYGPCAFMDTYDARTVFSSIDHEGRYAYGNQPGIARWNLARFAEALLPLLAEDESEALAHAQTVLDGFAEVYTNEWLAVFAAKFGLKTAQDGDLELFMDFLTLLGELKLDFTRSFRALANSLGDTAAAGIEALTADSARFAPWLTRWHERLGREYASQSDFASDARALMQGVNPVYIPRNHLLQGALDSAEAGDMAPFERLLEVVCRPYEELAGYGAYALGAPEDFGPFRTFCGT | not soluble
GEEQPQQISVASGTPVSADQTPATPQEQPRAPWWDASPGVQRLITLKDPQVVCEAASAGLLKTLRFVKYLPCFQILPLDQQLVLVRSCWAPLLMLELAQDHLHFEMMEIPETNTTQEMLTTRRQETEGPEPAEPQATEQPQMVSAEAGHLLPAAAVQAIKSFFFKCWSLNIDTKEYAYLKGTVLFNPDLPGLQCVKYIEGLQWRTQQILTEHIRMMQREYQIRSAELNSALFLLRFINSDVVTELFFRPIIGAVSMDDMMLEMLCAKL | soluble
MGSDKIHHHHHHMEEIKFPTNESGLCMNEKGVPWEDLKIVQAIADSGSLAGAGRTLGISHATVFRRLGALESRLGVRLFERHRTGYVPTLAGDDLATTAARVALDIEAVERRLMGRDARLSGTLRVTTTDTLLMGMLSDELAGFQRTYPHIVLEVEVSNRTYDLSRRDADVAIRPTSAPPETLIGRQVGQIAQAVYVSRCHRETSGWVGPDPHLGYPVLERWMARQGVDAQCRYHVDSMLGMLAGVRSGMGRGVLPCYLADMADDLVRASEPLPELQTELWLLTHPDLRNTARVQALFAYLSDSLKARQASLLGTMAAS | not soluble
MDYYYYPFVSDPYAVYTPNVWQSQGADELYLYSMPAIERQPQPVLSNAPAQTSIVLFKELTGYPNYGNPSGNADILYTGNRGTWTFDIQPILLIPGNLTAQLVIRGVLDDHTNVPVANYSARITINGTVVHTGRLPLVHGSPAGQRFNNWRLLTFNVPNLRRNNTVVIQNTSNTGPNDWIAFDWMELRLQPR | not soluble
MTQQGAALQNYNNELVKCIEELCQKREELCRQIQQEEDEKQRLQNEVRQLTEKLARVNENLARKIASRNEFDRTIAETEAAYLKILESSQTLLSVLKREAGNLTKATASDQKSSGGKDS | not soluble
MGSDKIHHHHHHMKKYVIVTGGVLSGIGKGIFSASLARLMKEHGVDVNVLKIDPYLNVDAGTMNPNQHGEVFVTEDGYEADLDLGHYERFLGRDMTRQNNMTAGQVYLRVIEKERQGKYLGNTVQIVPHLTEEIKDRIRALEAELLVVEIGGTVGDIEGEVFLEAVRELQMEEGKENFLFAHVTYVPYLRTTNEFKTKPTQQSVQLLRRIGITPDMVIVRSEFPLDVPSMNKVALFSGVPRDFVINLPDTKNVYEVPEILRDMGLHEKIASKLNVELKKSTFNWSYPKAFKPYRIALVGKYLGTDDAYKSIIESVFLTGIEKPTVVDSQMLEDMNDEEVKKVLDEYDALIIPGGFGRRGVEGKIKAIKYARENKKPILGICLGMQLMVIEFARNVFGYKEANSTEFDPNTPYPVVDLMEEQKRILKLGGTMRLGAQKVKIFPKTKLYEVYGGVEEVYERHRHRYEANEEAFPELFKKPGEEGYKLVVSAKSDFIEAVELEDHPFFVGVQFHPEYKSKVGAPHPIFVYLRKVLEGSQ | not soluble
PDYIYAKDTAGRFLIANEVTVADNGLESLRDLVGKTDFDLHPHEFAQAVADTERRVLETGEPIFGIEERAIVTKDRDRWLMTSKVPLRSKSGRIIGIVGISRD | not soluble
SQFKWSDFRILDRVSIGHGGRADELVFEAIVQVPDSPLFNQGVVLRKLNTTRAQRRGRRAIEVFKKLVRRRLLYHSYSMQVHGYITNNLSDDQYSFTLVHGCHGSFSIRHWLQQSDWIPTLEATLALDEESFRRVGDDTTGGPAVSRQLRLIRTLMRDILIGVNYLHSHGLAHTELRLENVHISPVDRHIKVGILGNAADFNGDVPSTSNAYSTMDRRQMMIAFDMRCVGFMMAKMVLQELMDPLIFAKLKSFLAKGNDPSSLREFFVTTLNTNSESGNTGVQILDRNWGAGWHLLSLLIATRPSERISCLDALKHPFLCGPRWRVAPSMDIIRWGLGSTAVKISEEYIYRMPQRQRLAHFIGLMEMLNPYPKPNCWLELLPGRWRLLYSTGKHIGLTLRQPSTRALIGNVHLTITRASESINNTSLSFTSDIRFTAITSKDWPHNKIGAAGKLQTLSQFRLIAGKRLYLKEEKKNIGKFSMGEPDAEEGLAEKLETEKWKKVVPFKEFPSSLPVAKLVSGEIEVTMNMNDHIDSPGSVIGEVRKQIPPEMFDLSKLVCGTYIDSRLLVLRCVNGSALLFTRSSLDHKSM | soluble
MAHHHHHHMQICPEGKGDSAASELLRFSDADGAVVREVLLDALCRVVPASLFSDAAALENVDEAELCVLLRYATEIQEQNAAFFQVMGGSEVMSRPERAATTEGRRVLQHFTRLVLARCRHLLHHHDGPPPTLLSGDAENIPFVDLQLYADHNHPEVRVHQKIGRANAQGLRYAGLQSTASTTMAELLSRLESANQRMAAGARGLRCDLLRHVAQKAALGKSKLTLEDVTRALPLLAAQMGKTSEQQVKSTYERLLTAMSTTIAVALQQPQKPACILALLEGLAGCHYTPSSYKLLEMVMLRMMMRGAFTLSDAGRCLIAMLQVVGPQKVSQSVKQAIAMRVVAAVDARSDSTAADVLAVLRALRYSCYSSFASLVCLVSKSPLMGNTANWQPSEHVRYAVLLAAAAAALETEANSELGIAVSTTARERLLLGLSPTHPPSAVPPHSPACVGEDAYQECVTACAALDVSPVPPALTAWAHADIDARPVHSLCTPALAVSTMEALEAMSLAPSRWYTAYVNYLTDTLEQMQRRPLLEDDAETAVRCLFLQRAPGAVTRLASVLLEHEVDRLDQTLTRGAVVRDDARAPPVCTFQQRSLERQTSEGETETRLLRYCAALQHASREMLSTRSAEV | not soluble
MGSDKIHHHHHHMVEQLKPRYSSVWINKIAEVPQDAWDALALPLKTPFLEWDWLNNLETSHSATAKTGWLPNHLTLWRDRTLIAVAPLYIKGHSYGEFVFDHQWAELAERIGVQYYPKLLGMTPFTPAEGYRFLIADGEDEEEITAMMVHEIDSFCVKHNISSCHFLYVDPQWQPVLEKQGFTAWLHHSFIWENSGFQNFDDYLTVFNANQRRNIKRERKAVEKAGLQLQAVTGDAIPKSLFPLMYQFYADTCDKFGWWGSKYLTKQFFEQLHHNYRHRVVFFPAYHEQDPRQPLGMSFCLFKDDRLYGRYWGSFQEIDCLHFDACYYAPIEWAIANGIQSFDPGAGGRHKKRRGFPAAPNYSLHRFYNSRLGQILRPYINEVNQLEEQEIAAINAELPFSQK | not soluble
MGSDKIHHHHHHMSKTLKEITDQKNELKKFFENFVLNLEKTEIFSEIQKNLTDEVLFVGCGSSYNLALTISYYFERVLKIRTKAIPAGEVAFQKIPDLEERGLAFLFSRTGNTTEVLLANDVLKKRNHRTIGITIEEESRLAKESDLPLVFPVREEAIVMTKSFSMILLSLMFLADKIAGNSTERFSELVGYSPEFFDISWKVIEKIDLKEHDHFVFLGMSEFFGVSLESALKCIEMSLTFSEAYSTLEYRHGPKALVKKGTLVFMQKVSGMDEQEKRLRKELESLGATVLEVGEGGDIPVSNDWKSAFLRTVPAQILGYQKAISRGISPDKPPHLEKTVVL | soluble
MGHHHHHHSHMSTVAFHTLGCKVNHYETEAIWQLFKQGGYERTEYEKKADVYVINTCTVTNTGDKKSRQVIRRAVRQNPDAVICVTGCYAQTSPAEIMAIPGVDIVVGTQDREKMLGYIEEFRKERQPINAVRNIMKTRVYEELDVPYFTDRTRASLKIQEGCNNFCTFCIIPWARGLMRSRDGKEVIKQAQQLVDAGYKEIVLTGIHTGGYGEDIKDYNLAGLLRDMEAEVGGLKRLRISSIEASQISDEVIEVLDKSEVVVRHLHIPLQSGSNTVLKRMRRKYTMEFFQERLDRLKEALPGLAITSDVIVGFPGETEEEFMETYNFIKENRFSELHVFPYSKRTGTPAARMEDQVPEDVKNDRVHRLIELSNQLAKEYASAFEGEVLEIIPEEQFKDGDREGLYVGYTDNYLKIVFEGSEELIGKLVKVKITKAGYPYNEAQFVRVLEDDVKKESASA | soluble
MSLISEVVVTTRKNNRDNKAPIGVYFKDKKVIMHLFSGSHTYENLLTEDYFSVNVVPPIEIAKAVLDDEDDYLYYNDIPYLKSSYYAIFYKVIERKFVDREDKFGKNRLMILEGEEIKRIYLNNIPKPYNRADGLLVEIAVIYSRLANKNIKINEDDKKEMINDIRKYFSIIKKVGGREHKQLAEIMLRNLNLLEGHHHHHH | soluble
MCSAGGIRRPIQIEEFKTAISGMSDMELAQIKTEIENSINHLQRSNARLGKYIAKLEGADDRLEADDSDDLENIDSGDLALYKDSVRENEIVLNNYNERVDALEQETVYRKTGHGKSKHEVEAKDNTNKGPDVDMDNSNVDVVTPNSIFI | soluble
MGSDKIHHHHHHMATIEILGFPHAYELTAPTSYPDALVFIHGWLNSRGYWQPVTSRLSVDFQCLSYDLRGFGESQSQLETDFHRGSSSASLSAQSLQEINLSFDSLYTPAAYAQDLAALLEQLNITSAWLVGHSLGGTIALWAAAQIPQRIKGVICINAGGGIYLKEAFEQFRMAGQRFLQVRPRWLSQLPLIDLLFTRASVSRPLDRQWARQRVIDFVVADPEAALGALLDSTTEDEVNRLPKLVSQLKQPVYFLAGTDDKVMEPKYVRHLASFHPLFQYCGDNVIEIPDCGHLAMLEQPDAVASHIKSLVIGHG | not soluble
MGHHHHHHSHMLEPQENGVIDLPDYEHVEDETFPPFPPPASPERQDGEGTEPDEESGNGAPVPVPPKRTVKRNIPKLDAQRLISERGLPALRHVFDKAKFKGKGHEAEDLKMLIRHMEHWAHRLFPKLQFEDFIDRVEYLGSKKEVQTCLKRIRLDLPILHEDFVSNNDEVAENNEHDVTSTELDPFLTNLSESEMFASELSRSLTEEQQRRIERNKQLALERRQAKLLSNSQTLGNDMLMNTPRAHTVEEVNTDEDQKEESNGLNEDILDNPCNDAIANTLNEEETLLDQSFKNVQQQLDATSRNITEAR | soluble
AHPLENAWTFWFDNPQGKSRQVAWGSTIHPIHTFSTVEDFWGLYNNIHNPSKLNVGADFHCFKNKIEPKWEDPICANGGKWTISCGRGKSDTFWLHTLLAMIGEQFDFGDEICGAVVSVRQKQERVAIWTKNAANEAAQISIGKQWKEFLDYKDSIGFIVHEDAKRSDKGPKNRYTV | soluble
MQLNETAVGEKVRISELKIENAMLKRRLLALGCDEGCDICIKQKGLFGGPCTFETKGQYISIRQCDACAIMVERRLEHHHHHH | not soluble
VSPKTYKDADFYVAPTQQDVNYDLVDDFGANGNDTSDDSNALQRAINAISRKPNGGTLLIPNGTYHFLGIQMKSNVHIRVESDVIIKPTWNGDGKNHRLFEVGVNNIVRNFSFQGLGNGFLVDFKDSRDKNLAVFKLGDVRNYKISNFTIDDNKTIFASILVDVTERNGRLHWSRNGIIERIKQNNALFGYGLIQTYGADNILFRNLHSEGGIALRMETDNLLMKNYKQGGIRNIFADNIRCSKGLAAVMFGPHFMKNGDVQVTNVSSVSCGSAVRSDSGFVELFSPTDEVHTRQSWKQAVESKLGRGCAQTPYARGNGGTRWAARVTQKDACLDKAKLEYGIEPGSFGTVKVFDVTARFGYNADLKQDQLDYFSTSNPMCKRVCLPTKEQWSKQGQIYIGPSLAAVIDTTPETSKYDYDVKTFNVKRINFPVNSHKTIDTNTESSRVCNYYGMSECSSSRWER | soluble
